The supplement of paper PMC9233669
This sample holds only a part of the variants without activity.

Columns and labels:
[1] = test system: biotinyl-Met-oxazolone; experiment: self-aminoacylation, catalytic enhancement (BMO) (fold over background); higher = more active; k-Seq, kA / k0A0; sequences stand for … in GGGAAUGGAUCCACAUCUACGAAUUC…UUCACUGCAGACUUGACGAAGCUG
Summary of the method: (§1)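 Working in 50 μL HEPES/NaCl/KCl/MgCl2/CaCl2 buffer with 5% acetonitrile at pH 6.9–7.0, mutagenized RNA pools (0.43 μM; 21-nt variable region) were reacted with 2–1250 μM of each biotinyl-aminoacyl-oxazolone for 90 minutes at room temperature. Streptavidin capture followed, with quantification by triplicate qPCR and Illumina sequencing. Catalytic enhancement is reported as median kA over the uncatalyzed rate, the low-activity peak of a bimodal Gaussian fit to the data.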

[2] = test system: biotinyl-Leu-oxazolone; experiment: self-aminoacylation, catalytic enhancement (BLO) (fold over background); higher = more active; k-Seq, kA / k0A0; sequences stand for … in GGGAAUGGAUCCACAUCUACGAAUUC…UUCACUGCAGACUUGACGAAGCUG
Summary of the method: as §1

[3] = test system: biotinyl-Ile-oxazolone; experiment: self-aminoacylation, catalytic enhancement (BIO) (fold over background); higher = more active; k-Seq, kA / k0A0; sequences stand for … in GGGAAUGGAUCCACAUCUACGAAUUC…UUCACUGCAGACUUGACGAAGCUG
Summary of the method: as §1

[4] = test system: biotinyl-Phe-oxazolone; experiment: self-aminoacylation, catalytic enhancement (BFO) (fold over background); higher = more active; k-Seq, kA / k0A0; sequences stand for … in GGGAAUGGAUCCACAUCUACGAAUUC…UUCACUGCAGACUUGACGAAGCUG
Summary of the method: as §1

[5] = test system: biotinyl-Val-oxazolone; experiment: self-aminoacylation, catalytic enhancement (BVO) (fold over background); higher = more active; k-Seq, kA / k0A0; sequences stand for … in GGGAAUGGAUCCACAUCUACGAAUUC…UUCACUGCAGACUUGACGAAGCUG
Summary of the method: as §1

[6] = test system: biotinyl-Trp-oxazolone; experiment: self-aminoacylation, catalytic enhancement (BWO) (fold over background); higher = more active; k-Seq, kA / k0A0; sequences stand for … in GGGAAUGGAUCCACAUCUACGAAUUC…UUCACUGCAGACUUGACGAAGCUG
Summary of the method: as §1

| Sequence | self-aminoacylation [1] | self-aminoacylation [2] | self-aminoacylation [3] | self-aminoacylation [4] | self-aminoacylation [5] | self-aminoacylation [6] |
| --- | --- | --- | --- | --- | --- | --- |
| AUUACACUGGUCAGCGAGUGA [Fam2.1 aminoacylation ribozyme variant] | 4.36 | 5.37 | 3.4 | 16.9 | 2.58 | 5.83 |
| AUUCUCCUAGAUCAUCGGGUG [Fam2.2 aminoacylation ribozyme variant] | 4.32 | 5.3 | 3.28 | 34.7 | 2.68 | 4.66 |
| AUUCACCUAGGUUAUCGGCUG [Fam2.2 aminoacylation ribozyme variant] | 1.73 | 1.79 | 1.45 | 4.24 | 1.57 | 1.44 |
| AUUACCCUGGUGAUCGAGUGA [Fam2.1 aminoacylation ribozyme variant] | 5.19 | 5.14 | 2.56 | 25.1 | 2.69 | 5.95 |
| CUUCCCCUAGGUCAUCGGGUG [Fam2.2 aminoacylation ribozyme variant] | 8.7 | 10.5 | 4.92 | 60.1 | 5.07 | 7.71 |
| CUACUUGAUACAAUCGGUCUG [Fam1A.1 aminoacylation ribozyme variant] | 0.735 | 0.734 | 0.753 | 0.52 | 0.776 | 0.517 |
| ACUCACCUUGGUCAUCGGGUG [Fam2.2 aminoacylation ribozyme variant] | 6.92 | 7.85 | 4.9 | 37.8 | 5.78 | 9.04 |
| AAGUUUGCUAUUAGUCGCCAG [Fam3.1 aminoacylation ribozyme variant] | 0.864 | 1.12 | 1.01 | 0.947 | 0.818 | 0.849 |
| AUCACCCUGGUCAACGAGUGA [Fam2.1 aminoacylation ribozyme variant] | 9.31 | 10.6 | 4.43 | 64.3 | 4.69 | 10.6 |
| CUGCUUCAAACAAUCGGUUUG [Fam1A.1 aminoacylation ribozyme variant] | 2.38 | 3.93 | 2.07 | 223 | 2.1 | 84.2 |
| CCACAAUUCGAGCAAUCGGUC [Fam1B.1 aminoacylation ribozyme variant] | 0.985 | 1.07 | 1.28 | 0.736 | 1.58 | 1.08 |
| AAGUUUGCUAAGAGUCGAAAG [Fam3.1 aminoacylation ribozyme variant] | 0.817 | 0.602 | 0.804 | 1.3 | 0.785 | 0.757 |
| AUGUUUGCUAACAGUCGCAAG [Fam3.1 aminoacylation ribozyme variant] | 1.61 | 1.49 | 1.59 | 5.92 | 1.43 | 3.34 |
| AAGUUUGCUAAGUGUCGCAAG [Fam3.1 aminoacylation ribozyme variant] | 0.887 | 0.786 | 0.902 | 1.9 | 0.897 | 0.987 |
| AUUACCCUGGUGAUCGAAUGA [Fam2.1 aminoacylation ribozyme variant] | 0.846 | 1.02 | 0.957 | 0.432 | 1.09 | 0.949 |
| CUUCACCUAGGUCAUCCGGUG [Fam2.2 aminoacylation ribozyme variant] | 6.47 | 8.19 | 5.77 | 34.5 | 4.94 | 6.39 |
| AUUCAGCUCGGUCAUCGGGUG [Fam2.2 aminoacylation ribozyme variant] | 9.53 | 9.01 | 4.88 | 78.7 | 5.43 | 7.34 |
| UCGCACUUCAAGCAAUCGGUC [Fam1B.1 aminoacylation ribozyme variant] | 1.44 | 2.14 | 1.38 | 55.1 | 1.61 | 29.8 |
| AAGUUUACUAGUAGUCGCAAG [Fam3.1 aminoacylation ribozyme variant] | 1.53 | 1.29 | 1.44 | 1.48 | 1.14 | 1.29 |
| AUCUACCUAGGUCAUCGGGUG [Fam2.2 aminoacylation ribozyme variant] | 10 | 12.1 | 6.54 | 51.1 | 6.18 | 8.66 |
| AAGUUUGGCAAUAGUCGCAAG [Fam3.1 aminoacylation ribozyme variant] | 1.49 | 1.4 | 1.79 | 1.92 | 1.42 | 1.49 |
| CCACACUGCAAGCAAUCGGUG [Fam1B.1 aminoacylation ribozyme variant] | 4.9 | 7.11 | 3.4 | 31.5 | 3.12 | 5.82 |
| AAGUUUGCUAAUAGUAGCAAU [Fam3.1 aminoacylation ribozyme variant] | 1.57 | 1.11 | 1.32 | 1.15 | 1.32 | 1.78 |
| AAGUUUGCUAAUAGUCGUAAG [Fam3.1 aminoacylation ribozyme variant] | 1.34 | 0.914 | 1.19 | 33 | 1.05 | 8.22 |
| AUAAACCUAGGUCAUCGGGUG [Fam2.2 aminoacylation ribozyme variant] | 3.29 | 4.39 | 2.57 | 20.4 | 2.43 | 3.73 |
| AUUACCCUGGUCAUCUAGUAA [Fam2.1 aminoacylation ribozyme variant] | 1.06 | 1.15 | 1.1 | 1.32 | 1.08 | 0.903 |

| Sequence | self-aminoacylation [1] | self-aminoacylation [2] | self-aminoacylation [3] | self-aminoacylation [4] | self-aminoacylation [5] | self-aminoacylation [6] |
| --- | --- | --- | --- | --- | --- | --- |
| AUUAUCGUGGUCAUCGAGUGA [Fam2.1 aminoacylation ribozyme variant] | 4.44 | 4.54 | 2.83 | 27.7 | 3.25 | 5.66 |
| CUACUUCAAAAAAUCCGUCUG [Fam1A.1 aminoacylation ribozyme variant] | 0.854 | 0.682 | 0.834 | 1.02 | 0.945 | 0.897 |
| AUUACCCUGGUCAUCAAGUUA [Fam2.1 aminoacylation ribozyme variant] | 0.684 | 0.646 | 0.676 | 0.737 | 0.681 | 0.328 |
| CCACUUCGAACAAUCGGUCUG [Fam1A.1 aminoacylation ribozyme variant] | 1.77 | 1.41 | 1.15 | 1.26 | 1.24 | 1.32 |
| AGUAGCCUGGUCAUCGAGUGA [Fam2.1 aminoacylation ribozyme variant] | 7.32 | 7.91 | 4.84 | 37.9 | 4.85 | 8.44 |
| AUUACCUUGGUCACCGAGUGA [Fam2.1 aminoacylation ribozyme variant] | 6.15 | 6.74 | 2.87 | 23.4 | 3.11 | 6.72 |
| AUUGACCUAGGACAUCGGGUG [Fam2.2 aminoacylation ribozyme variant] | 4.19 | 4.56 | 3.72 | 19.3 | 3.53 | 4.97 |
| AUUCACCAAGAUCAUCGGGUG [Fam2.2 aminoacylation ribozyme variant] | 4.4 | 5.42 | 3.1 | 33.2 | 3.21 | 4.68 |
| CCACACUUCAAGCUAUCGGUA [Fam1B.1 aminoacylation ribozyme variant] | 0.992 | 1.28 | 1.16 | 0.934 | 1.18 | 1.29 |
| AAGUUUGCUAAUAGUCAUAAG [Fam3.1 aminoacylation ribozyme variant] | 1.27 | 1.15 | 1.44 | 17.9 | 1.25 | 5.59 |
| CUACUCCAAACAAACGGUCUG [Fam1A.1 aminoacylation ribozyme variant] | 0.531 | 0.71 | 0.816 | 1.09 | 0.981 | 0.918 |
| AAGUUUACUAAUACUCGCAAG [Fam3.1 aminoacylation ribozyme variant] | 1.18 | 1.06 | 1.26 | 1.55 | 1.18 | 1.37 |
| CCACACUUAAAGAAAUCGGUC [Fam1B.1 aminoacylation ribozyme variant] | 0.734 | 0.749 | 0.754 | 0.562 | 0.785 | 0.679 |
| CUACUUCAAACAAUCGGCUUG [Fam1A.1 aminoacylation ribozyme variant] | 1.1 | 1.21 | 1.27 | 2.59 | 1.35 | 2.53 |
| CCACACUCCAAGCAAUCGGUA [Fam1B.1 aminoacylation ribozyme variant] | 0.699 | 1.27 | 1.15 | 0.936 | 1.34 | 1.25 |
| CUACCUCAAACAAUAGGUCUG [Fam1A.1 aminoacylation ribozyme variant] | 0.838 | 0.846 | 0.959 | 1.08 | 1 | 0.691 |
| CCACACUUUAAGCAAUCGGGC [Fam1B.1 aminoacylation ribozyme variant] | 1.63 | 1.65 | 1.61 | 1.22 | 1.34 | 1.01 |
| CCACACUUCUGGCAAUCGGUC [Fam1B.1 aminoacylation ribozyme variant] | 1.26 | 1.54 | 1.23 | 1.18 | 1.49 | 0.873 |
| CUACUUCUAACCAUCGGUCUG [Fam1A.1 aminoacylation ribozyme variant] | 0.659 | 0.653 | 0.703 | 0.859 | 0.761 | 0.45 |
| UUUAACCUGGUCAUCGAGUGA [Fam2.1 aminoacylation ribozyme variant] | 5.83 | 5.8 | 4.01 | 11.2 | 4.17 | 8.93 |
| CUAUUUCAUACAAUCGGUCUG [Fam1A.1 aminoacylation ribozyme variant] | 0.837 | 0.804 | 0.911 | 0.812 | 0.801 | 0.625 |
| CCACACUACAUGCAAUCGGUC [Fam1B.1 aminoacylation ribozyme variant] | 0.743 | 0.762 | 0.737 | 0.877 | 0.888 | 0.812 |
| AUUCACGUAGGACAUCGGGUG [Fam2.2 aminoacylation ribozyme variant] | 5.02 | 5.61 | 3.6 | 24.5 | 4.37 | 5.55 |
| CUACACUUCAGGCAAUCGGUC [Fam1B.1 aminoacylation ribozyme variant] | 1.01 | 0.97 | 1 | 1.49 | 1.01 | 0.839 |
| AUUACCCUAGUCAUCGAGUUA [Fam2.1 aminoacylation ribozyme variant] | 0.978 | 0.9 | 0.922 | 1.05 | 1.17 | 0.53 |
